These results are taken from paper PMC5204125, “Primase is required for helicase activity and helicase alters the specificity of primase in the enteropathogen Clostridium difficile” (Open Biology, 2016).

Experiment [1] deals with T1, CD3657 helicase with CD3654 helicase loader (Clostridioides difficile, UniProt Q181Q5+Q181Q8).
T1 construct: gene dnaC; full-length open reading frames, non-tagged, expressed in E. coli BL21(DE3) from pET vectors; CD3657 monomer 49 kDa, CD3654 38 kDa; most probably 6:6 dodecamer with ATP (522 kDa); with Helicase loader ATPase (DnaI-like AAA+ protein)
T1 sequence (Q181Q8 1-442): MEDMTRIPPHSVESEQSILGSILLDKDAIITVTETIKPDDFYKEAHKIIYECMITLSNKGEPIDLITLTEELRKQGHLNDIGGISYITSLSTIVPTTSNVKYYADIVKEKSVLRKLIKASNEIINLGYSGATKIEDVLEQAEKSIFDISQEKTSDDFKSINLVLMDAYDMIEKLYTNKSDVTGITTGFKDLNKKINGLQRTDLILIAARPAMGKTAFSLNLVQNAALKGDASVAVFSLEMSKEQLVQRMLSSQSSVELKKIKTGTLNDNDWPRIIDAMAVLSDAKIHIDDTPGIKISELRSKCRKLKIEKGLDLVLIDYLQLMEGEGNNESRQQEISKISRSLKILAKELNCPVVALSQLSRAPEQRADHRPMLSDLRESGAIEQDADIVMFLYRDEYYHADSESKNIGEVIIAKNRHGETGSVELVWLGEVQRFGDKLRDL
T1 sequence (Q181Q5 1-330): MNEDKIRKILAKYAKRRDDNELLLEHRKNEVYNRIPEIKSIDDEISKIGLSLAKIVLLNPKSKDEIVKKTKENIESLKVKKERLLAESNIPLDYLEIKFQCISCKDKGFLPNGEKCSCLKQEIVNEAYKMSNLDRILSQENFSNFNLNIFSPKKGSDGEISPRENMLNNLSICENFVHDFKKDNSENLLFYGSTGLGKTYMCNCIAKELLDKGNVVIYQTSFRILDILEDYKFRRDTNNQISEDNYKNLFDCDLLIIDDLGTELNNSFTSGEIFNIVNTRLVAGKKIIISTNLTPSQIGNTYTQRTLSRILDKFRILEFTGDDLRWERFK
Put plainly: analytical gel filtration (Superdex […]) with SDS-PAGE. To be noted: 1 mM ATP; 2.21 uM each protein (monomer); ATP site inferred by the authors to be on CD3657 (Walker A), ATP binding itself not measured. (SEC sorts molecules by how far they enter the pores of the column.)

In experiment [2] the target is C. difficile replicative helicase CD3657, purified non-tagged (Clostridium difficile).
Experiment [3] has the same target. The source holds these as a separate data set.
Experiment [4] concerns the target C. difficile putative helicase loader CD3654, purified non-tagged (Clostridium difficile). Put plainly: SEC; analytical gel filtration, Superdex 200 10/300 GL, CD3657 and CD3654 equimolar 2.21 µM (monomer), with 1 mM ATP; fractions on SDS-PAGE.
Experiment [5] concerns the target C. difficile replicative helicase CD3657, purified non-tagged (Clostridium difficile). Described as above.
The target is the same in experiment [6]. Put plainly: SEC; analytical gel filtration of purified CD3657 alone, at 10 µM and above (monomer).
The target is the same in experiment [7]. Put plainly: SEC; analytical gel filtration, Superdex 200 10/300 GL, CD3657 and CD3654 equimolar 2.21 µM (monomer), without ATP; fractions on SDS-PAGE.
For experiment [8] the target is unchanged. Put plainly: SEC; analytical gel filtration of CD3657 and CD3654 at high concentrations (approx. 10 µM); Figure S3.
In experiment [9] the target is CD3654 putative helicase loader, bacterial two-hybrid fusion (Clostridium difficile). Put plainly: two-hybrid; bacterial two-hybrid: Zif fusion and RNA polymerase ω subunit fusion, Zif-dependent lacZ reporter in E. coli KDZif1ΔZ, β-galactosidase activity, n = 3.
The target in experiment [10] is CD3657 helicase, bacterial two-hybrid fusion (Clostridium difficile). The description is as above.

In the case of `Nc1ncnc2c1ncn2[C@@H]1O[C@H](COP(=O)(O)OP(=O)(O)OP(=O)(O)O)[C@@H](O)[C@H]1O` [ATP], the “analytical gel filtration (Superdex 200) with SDS-PAGE” value in experiment [1] was “CD3657 helicase and the loader CD3654 can form a complex in an ATP-dependent manner”.
In experiment [2], “C. difficile primase CD1454, purified without an affinity tag (enzyme)” returned a helicase assay: displacement of a radiolabelled oligonucleotide annealed to ssM13 by CD3657 with equimolar CD1454 against CD3657 alone, time course to 35 min of 3.5 fold. Besides, the RNA primer production by CD1454 on the 5′-d(CTA) 23-mer ssDNA template with against without CD3657, at [CD3657]6:[CD1454]3 in experiment [3] turned out to be 45.9 nmol.
On to “C. difficile replicative helicase CD3657, purified non-tagged (enzyme)”, for which the stoichiometry N (CD3657 per CD3654 (6:6)) in experiment [4] is 1. For the same compound, the stoichiometry N in experiment [5], in experiment [6], in experiment [7] and in experiment [8] was 6 throughout.
Turning to “CD3657 helicase, bacterial two-hybrid fusion (enzyme)”, the fold β-galactosidase activity over the reporter strains with the individual plasmids came to 5 fold in [9] and 3 fold in experiment [10].

As usually defined, the stoichiometry N is a count of units in the complex or per binding partner.
